Source: article PMC8492941

Biological target: ABD-fused VP1 (ABD-VP1) protein vaccine (not stated | Coxsackievirus B3) (UniProt P03313)
Experiment: ELISA; sandwich ELISA on serum of mice injected subcutaneously with ABD-VP1 or VP1: plates pre-coated with anti-VP1 antibody, detection with anti-albumin antibody and HRP-labeled secondary antibody, absorbance at 450 nm; the complex formed in vivo

mouse serum albumin (MSA) (from UniProt P07724 25-608) (natural protein)
OD450: 0.7 OD450
